# Experimental data published in PMC7910549.
# Molecular target: GFP-tagged CSB (UniProt Q03468)
# Assay: affinity purification with mass spectrometry; label-free quantification and iBAQ; GFP-CSB pulled down with GFP Trap beads from U2OS CSB-KO cells; untreated against 20 J/m^2 UV-C with 1 h recovery
# Sequence of UniProt Q03468 (Q03468 whole entry): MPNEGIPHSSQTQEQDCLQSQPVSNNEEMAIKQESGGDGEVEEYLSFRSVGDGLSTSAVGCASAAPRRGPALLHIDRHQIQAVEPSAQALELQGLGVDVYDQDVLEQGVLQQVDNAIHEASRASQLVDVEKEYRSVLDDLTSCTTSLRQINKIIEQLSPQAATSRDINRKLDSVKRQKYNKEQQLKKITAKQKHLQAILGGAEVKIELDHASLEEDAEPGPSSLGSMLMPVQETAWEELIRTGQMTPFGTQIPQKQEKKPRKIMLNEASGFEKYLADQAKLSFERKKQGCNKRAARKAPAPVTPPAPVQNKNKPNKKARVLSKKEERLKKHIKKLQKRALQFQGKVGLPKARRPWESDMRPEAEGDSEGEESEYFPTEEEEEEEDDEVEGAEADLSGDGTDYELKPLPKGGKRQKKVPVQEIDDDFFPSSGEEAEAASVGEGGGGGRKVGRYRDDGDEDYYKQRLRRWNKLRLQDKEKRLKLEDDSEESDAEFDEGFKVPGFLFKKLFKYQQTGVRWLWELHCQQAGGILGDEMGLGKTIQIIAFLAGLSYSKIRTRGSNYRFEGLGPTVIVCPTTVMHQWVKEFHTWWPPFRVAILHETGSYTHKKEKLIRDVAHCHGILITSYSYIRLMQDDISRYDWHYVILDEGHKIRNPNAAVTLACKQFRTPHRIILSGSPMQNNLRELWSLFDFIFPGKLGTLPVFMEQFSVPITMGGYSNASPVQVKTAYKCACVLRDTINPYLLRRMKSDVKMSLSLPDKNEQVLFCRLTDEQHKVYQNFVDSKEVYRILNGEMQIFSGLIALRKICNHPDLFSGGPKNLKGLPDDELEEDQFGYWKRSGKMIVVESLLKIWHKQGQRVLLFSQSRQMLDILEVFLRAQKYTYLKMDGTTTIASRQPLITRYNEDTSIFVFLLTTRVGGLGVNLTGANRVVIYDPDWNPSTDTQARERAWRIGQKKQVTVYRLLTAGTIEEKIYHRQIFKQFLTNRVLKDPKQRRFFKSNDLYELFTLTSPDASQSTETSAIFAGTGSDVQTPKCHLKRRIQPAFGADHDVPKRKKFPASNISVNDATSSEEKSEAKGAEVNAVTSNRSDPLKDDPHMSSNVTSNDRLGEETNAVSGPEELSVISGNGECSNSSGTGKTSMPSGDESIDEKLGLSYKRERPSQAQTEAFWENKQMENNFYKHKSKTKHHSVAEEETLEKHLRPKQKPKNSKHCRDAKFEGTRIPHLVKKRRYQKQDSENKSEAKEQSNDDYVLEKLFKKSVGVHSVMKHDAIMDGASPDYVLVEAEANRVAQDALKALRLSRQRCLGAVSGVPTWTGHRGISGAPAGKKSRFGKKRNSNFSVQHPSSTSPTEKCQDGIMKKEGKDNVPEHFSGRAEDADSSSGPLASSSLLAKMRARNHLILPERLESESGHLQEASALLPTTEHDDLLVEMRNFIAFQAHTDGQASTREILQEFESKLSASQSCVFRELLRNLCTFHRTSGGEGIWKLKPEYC
substance,measurement,value
"RNA polymerase II (RNAPII), endogenous (from UniProt P24928 1-1970) (complex)",percent of the isolated CSB molecules associated (iBAQ),> 60%
